The results in this text go back to PMC4569521 (Journal of molecular biology, 2015).

Where no end group is shown, it is not given here. fluorescein = fluorescein label at the N-terminus

In general, Kd refers to the constant that tells how readily two partners part at equilibrium. Low values mean a tighter complex, high ones a looser complex.

The target of the experiment is T1, N-domain of ClpX (residue 1–64) (E. coli, UniProt P0A6H1 1-64).
T1 sequence (looked up): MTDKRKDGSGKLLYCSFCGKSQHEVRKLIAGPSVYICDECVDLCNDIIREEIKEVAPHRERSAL
Kind of experiment: fluorescence polarisation.

Molecule fluorescein-ESRIVGIFRPSGNTERVKNQ [fluorescein-labeled E-tag peptide (MuA residues 614–633)] had a Kd of roughly 380 µM.
